Results: publication PMC12663545

How the values were obtained:
[1] = molecular target: Chloroflexus aurantiacus succinate dehydrogenase (CaSDH) monomer of SdhA, SdhB and SdhC (Chloroflexus aurantiacus J-10-fl (endogenous)); assay: native gel or EMSA
[2] = molecular target: Chloroflexus aurantiacus succinate dehydrogenase (CaSDH) monomer of SdhA, SdhB and SdhC (Chloroflexus aurantiacus J-10-fl (endogenous)); assay: cryo-EM structure

Substance “Chloroflexus aurantiacus succinate dehydrogenase (CaSDH) monomer of SdhA, SdhB and SdhC (complex)” has a stoichiometry N [1] of 3 and a stoichiometry N [2] of 3.
